The RNAGym collection of RNA variant scans (doi:10.1073/pnas.2313332121)

B1: TPR t1 (parent)
chain: GACCAAUCUGCCCUCAGAGCUCGAGAACAUCUUCGGAUGCAGAGGAGGCAGGCUUCGGUGGCGCGAUAGCGCCAACGUCCUCAACCUCCAAUGCAUCCCACCACAUGAUGAUGCCUGAAGAGCCUUGGUUUUUUG

Variants of: B1
Assay: polymerase ribozyme fitness, log enrichment relative to wild type (log ratio); higher = more active; in vitro selection for triplet polymerase activity
In short: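 Mutant libraries were PCR-built and transcribed for each subunit of a heterodimeric triplet polymerase ribozyme and selected for one round in triplicate at −7 °C, frozen, before gel excision of extended constructs and streptavidin-bead capture. Input and output libraries were Illumina-sequenced, keeping genotypes with ≥10 input reads and ≥1 read per output. Fitness is a logarithmic ratio of genotype to wild-type enrichment, in base 2, using inverse-variance-weighted replicate averages.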

Variant	polymerase ribozyme fitness (log ratio)
C31U C72A	-4.11
C31U C72U	-4.57
C31U C86A	-5.09
A29G A37G C40U G61C G127U	-4.48
A27U U59C	-3.53
U30C G58C	-2.83
A29G C62A	-2.33
A27U C49U A90G G93U	-3.23
A27U C31G G69U C79G G120C U130G U132A	-6.29
A29G C115U U126G	-3.15
A29C G36U G45U	-4.64
C31A C72U C123A U125G U129A U133G	-6.38
A27U G51A A74C A83C	-7.03
C31G U112A	-5.33
C28A G61A	-4.06
A27U C49G G51U C79G	-6.98
U30C C56U	-2.08
A29U G48C	-2.86
C28G U54A G122U	-2.85
A29U U109G G122A	-1.47
A27U C56U	-3.04

Variant	polymerase ribozyme fitness (log ratio)
A29U G63A	-2.41
A29G C73U C114A	-1.97
C31U G60U	-4.38
A29G C104U U112G	1.06
A29G C79G	-2.5
C31U C49A C123U C124U	-4.12
A27U C62U G117U C123G	-5.03
A29C A75G U78G	-2.56
A29G G60U A84C C94U U106A G120A U125G	-0.963
C31G C123U	-7.18
A29C A41C C56G U59A G69U C82U A121C G135C	-6.04
C28G C56A	-1.87
A29G G48U G57C C73U	-1.71
C31A C56A C98A	-5.09
A29U C53U C72G A83U U96A	-4.12
A29U C56U A74U A100C	-3.55
A29U A41C	-2
A29U U126C	-2.33
A27U C40U C82A	-3.5
A27U C104U	-3.5
C28A U96A C97A G110A C124A	-3.05

Variant	polymerase ribozyme fitness (log ratio)
C28A U54A G61U G110U	2.18
A29U C56G G58C G77A C88U G120C C123G U129A	-5.14
C28U C40G G48U C85A	-3.6
A29G C64U C104A U106A U112C	-0.729
C31U G61U A91C	-5.51
C28A C72A C123G U126C	-2
C31A A37U G60A A83C	-7.59
C31G C34U G69U U78C C86U C101A G113U	-7.18
C28U C62A	-2.73
U30C C62U U78C	-3.36
A29G C49U A119U G120A C123A	-2.51
A29G G61C	-2.51
A29G A66G	-1.88
C28U C34U C73G C102U G110A	-0.0797
A29U C99U U106A	-4.1
C31U C85G	-5.19
A27U C97U U112A	-3.08
U30G G48A C49U C62U C85A A121G	-6.22
A29U G52C C73G U129A	-4.18
C31A C73G	-5.21
A29G C49A	-1.64

Variant	polymerase ribozyme fitness (log ratio)
A29G G52U	-1.55
A29U C62G U81C A100U C124A	-3.66
C28U C49A C72A C114G	-5.7
A27U C72U U87G	-3.11
U30A A37U	-4.9
C31U G44C G69U C115U U130A	-4.82
C28U G47C C73A C97U	-3.8
A29U G48C C53U	-3.4
A29G G61U C85A C102U	-5.28
C28U G39A	-2.12
A29G A43C	-3.7
C28A C64U C70A C99U G110U G120C U132A	-7.34
A29U C53U C56U G69U G93C	-3.98
C31G C94G G113A	-5.38
C28U G63C	-3.08
A29G G69A A75U C104U U112G	-4.35
C28A C76G G120A	-4.53
U30C A50C	-2.91
C31G G69U A111C U112A G117A	-6.69
A29C A37G	-2.11
